Measured values published in US20180094056A1 (Genentech, published 2018).

How the values were obtained:
[1] = target: T1, recombinant human Her2 ECD (Human Her2/ErbB2 protein, catalog #10004-HCCH, Sino Biological Inc.) (human, UniProt P04626 23-652); experiment: SPR (Biacore T200), HER2 ECD immobilised on CM5, anti-HER2/CD3 TDB as analyte
T1 construct: extracellular domain; also called HER2 antigen; HER2 target

[2] = target: T1, recombinant human Her2 ECD (Human …); experiment: SPR (Biacore), conditions of Example 1, HER2 ECD immobilized on CM5 chip
[3] = target: T1, recombinant human Her2 ECD (Human …); experiment: SPR (Biacore), conditions of Example 1, human Her2 ECD immobilized on CM5 chip

B1: 4D5v3-40G5 anti-HER2/CD3 TDB (bispecific antibody, V domains shown)
VH 1: not shown
VL 1: not shown
VH 2: EVQLVQSGAEVKKPGASVKVSCKASGYTFTNYYIHWVRQAPGQGLEWIGWIYPGDGNTKYNEKFKGRATLTADTSTSTAYLELSSLRSEDTAVYYCARDSYSNYYFDYWGQGTLVTVSS
VL 2: DIVMTQSPDSLAVSLGERATINCKSSQSLLNSRTRKNYLAWYQQKPGQPPKLLIYWASTRESGVPDRFSGSGSGTDFTLTISSLQAEDVAVYYCTQSFILRTFGQGTKVEIK
notes: also called HER2 TDB
[1]
  fold affinity relative to wildtype 4D5 TDB: ~10 fold
[2]
  Kd: 0.06 nM
[3]
  Kd: 0.04 nM
